Target: the molecule itself
Assay: cross-linking

B1: p53R245W (mouse, DNA binding domain mutant) (natural protein, mouse (endogenous in MEFs), UniProt P02340 1-390, looked up)
chain: MTAMEESQSDISLELPLSQETFSGLWKLLPPEDILPSPHCMDDLLLPQDVEEFFEGPSEALRVSGAPAAQDPVTETPGPVAPAPATPWPLSSFVPSQKTYQGNYGFHLGFLQSGTAKSVMCTYSPPLNKLFCQLAKTCPVQLWVSATPPAGSRVRAMAIYKKSQHMTEVVRRCPHHERCSDGDGLAPPQHLIRVEGNLYPEYLEDRQTFRHSVVVPYEPPEAGSEYTTIHYKYMCNSSCMGGMNWRPILTIITLEDSSGNLLGRDSFEVRVCACPGRDRRTEEENFRKKEVLCPELPPGSAKRALPTCTSASPPQKKKPLDGEYFTLKIRGRKRFEMFRELNEALELKDAHATEESGDSRAHSSYLKTKKGQSTSRHKKTMVKKVGPDSD
stoichiometry N: 4

Reference: publication PMC10164062 (Cancer discovery, 2023)
